Where two headings read alike, the source gives them in different places.

The conditions of series [1]: mouse, in vivo; cited from earlier work.
The next series deals with FGF21 signaling pathway. As to the kind of experiment: FGF21 cell-based bioactivity assay, luciferase reporter in HEK293T cells transfected with GAL4DBD-ELK1 and KLB (β-klotho). To be noted: Table 4, 6 h. From the text: The puromycin resistance gene pac was amplified by PCR and cloned into pcDNA3.1(+) to replace the original G418 resistance gene. The GAL4DBD-ELK1, IRES. and KLB (β-klotho) genes were amplified by PCR and cloned into the pcDNA-Puro plasmid in sequence to construct the plasmid pcDNA-GAL4DBD-ELK1-IRES-KLB-Pero for cell transfection and screening. The constructed recombinant plasmid and the pFR-Luc plasmid (Agilent) were extracted by Omega E.Z.N.A.® Endo-Free Plasmid Midi Kit for future use. The cell transfection process was as follows: HEK293T cells were plated 3×10^5 cells per well in a 6-well plate and cultured overnight.
After washing the cells twice with Opti-MEM medium, 2 ml Opti-MEM medium was added. Cell transfection reagent was prepared according to the following proportion: Lipofectamine 2000 (6 μl ): pFR-Luc (4.6 μg): pcDNA-GAL4DBD-ELK1-IRES-KLB-Pura (1 μg). […]
The cells were digested with pancreatin to prepare a cell suspension (1×10^5 cells/ml, DMEM+5% FBS+1 μg/ml puromycin) after reaching confluence in the dish, followed by plating in a 96-well plate (100 μl per well), and culturing overnight. Samples of gradient concentrations were added and cultured for 6 h before fluorescence detection by the Luciferase Reporter Assay Kit (Lucifersae reporter kit, Ray Biotech, Cat:68-LuciR-S200).
(Reporter assays use an easily measured gene product as a stand-in for the process of interest.)

For series [2] the following is noted: monkey, in vivo; cited from earlier work.

B1: Natural FGF21: natural fibroblast growth factor 21, SEQ ID NO.87 (protein)
chain: HPIPDSSPLLQFGGQVRQRYLYTDDAQQTEAHLEIREDGTVGGAADQSPESLLQLKALKPGVIQILGVKTSRFLCQRPDGALYGSLHFDPEACSFRELLLEDGYNVYQSEAHGLPLHLPGNKSPHRDPAPRGPARFLPLPGLPPALPEPPGILAPQPPDVGSSDPLSMVGPSQGRSPSYAS
modifications: Amino acid sequence of natural FGF21
In the case of B1, the Serum half-life is 0.5 h in series [1] and 2 h in series [2]. This molecule gave an EC50 with FGF21 signaling pathway of 0.12 nM.

By EC50 is commonly meant the concentration giving half of the maximal effect. Lower therefore signals greater potency.

Source of the values: US20220340635A1, “FUSION PROTEIN FOR TREATMENT OF METABOLIC DISEASE” (ZHEJIANG DOER BIOLOGICS CORPORATION, priority 2019, published 2022).
